{"source": "paper PMC4103764", "origin": "cited, not measured here", "molecular_target": "SARS 3C-like protease (SARS coronavirus) (UniProt P0C6X7)", "test": "ITC", "note": "pKd: −log10 of the molar value."}
{"substance": "SARS 3C-like protease (from UniProt P0C6X7)", "values": [{"measurement": "pKd", "value": 4.67}]}
